# Measured values published in publication PMC10940300.
# Target: preF^C (soluble RSV F A2 prefusion F in the Cav1 background with V185Y, K226Y, N428Y, L512V, L513V and Y519F, before crosslinking) (respiratory syncytial virus (RSV F A2) | not stated) (UniProt P03420)
# Assay: cross-linking; dityrosine crosslinking reaction (Arthromyces ramosus peroxidase and H2O2) of the purified protein; reducing SDS-PAGE (TCEP, 95 °C), Coomassie stain, gel shift from monomer to trimer
substance,measurement,value
"preF^C (soluble RSV F A2 prefusion F in the Cav1 background with V185Y, K226Y, N428Y, L512V, L513V and Y519F, before crosslinking) (from UniProt P03420 26-109) (natural protein)",stoichiometry N,3
